Laboratory results: PMC10545799

Tests used:
[1] = molecular target: dsc-Agg5AB (chimeric donor strand complemented construct of minor pilin subunit Agg3B and major pilin subunit Agg5A) (enteroaggregative E. coli); test: SAXS; engineered subunit samples (monomer fractions of the gel filtration) in solution, 10 °C, dilutions 1:1 and 1:2; molecular weight and aggregation number from Guinier analysis; self-association
[2] = molecular target: dsc-Agg5A (donor strand complemented major pilin subunit Agg5A of AAF/V) (enteroaggregative E. coli); test: as above

## dsc-Agg5AB (chimeric donor strand complemented construct of minor pilin subunit Agg3B and major pilin subunit Agg5A)
[1]
  stoichiometry N: 6.8

## dsc-Agg5A (donor strand complemented major pilin subunit Agg5A of AAF/V) (domain or fragment)
[2]
  stoichiometry N: 2
